Results reported in US20180127510A1 (INSERM INSTITUT NATIONAL DE LA SANT ET DE LA RECHERCHE M …, published 2018).

Legend:
[1] = target: T1, human 51-kDa pseudo-Cath-D (human, UniProt P07339 47-412, limits assumed); assay: cleavage of fluorogenic substrate M2295 by pseudo-Cath-D at pH 6, competitive inhibition fit (n=3)
T1 construct: domain: 51-kDa pseudo-Cath-D

[2] = target: T2, human mature (34+14-kDa) Cath-D (human, UniProt P07339 65-162; P07339 169-412); assay: cleavage of fluorogenic substrate M0938 by mature Cath-D at pH 6, competitive inhibition fit (n=3)
T2 construct: domain: 14-kDa light chain;domain: 34-kDa heavy chain; Purified from human liver (Sigma Aldrich); also called mature Cath-D; mature cath-D
T2 sequence (P07339 65-162 limits assumed, chain 1 of 2): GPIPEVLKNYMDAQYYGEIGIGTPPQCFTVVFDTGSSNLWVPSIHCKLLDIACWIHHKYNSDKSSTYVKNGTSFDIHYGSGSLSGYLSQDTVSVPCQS
T2 sequence (P07339 169-412 limits assumed, chain 2 of 2): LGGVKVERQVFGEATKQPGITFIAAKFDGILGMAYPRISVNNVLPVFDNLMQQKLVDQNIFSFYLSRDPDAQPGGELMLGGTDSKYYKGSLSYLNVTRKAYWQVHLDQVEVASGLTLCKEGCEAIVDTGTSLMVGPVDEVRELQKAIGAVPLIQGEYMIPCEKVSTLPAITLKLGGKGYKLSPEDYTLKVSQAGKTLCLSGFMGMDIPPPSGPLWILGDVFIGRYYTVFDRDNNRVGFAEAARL

T1 sequence (P07339 47-412 limits assumed): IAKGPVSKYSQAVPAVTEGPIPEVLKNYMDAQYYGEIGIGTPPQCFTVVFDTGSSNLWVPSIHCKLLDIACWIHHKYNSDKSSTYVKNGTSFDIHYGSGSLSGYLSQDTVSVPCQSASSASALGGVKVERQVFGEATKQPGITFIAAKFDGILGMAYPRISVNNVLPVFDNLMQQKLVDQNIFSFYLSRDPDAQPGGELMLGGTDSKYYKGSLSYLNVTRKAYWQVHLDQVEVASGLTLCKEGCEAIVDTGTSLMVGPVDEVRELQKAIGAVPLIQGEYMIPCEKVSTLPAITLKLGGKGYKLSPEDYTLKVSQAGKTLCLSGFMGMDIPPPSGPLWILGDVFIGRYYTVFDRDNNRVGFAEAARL

Binder	Ki [1] [nM]	Ki [2] [nM]
anti-Cath-D scFv E2 (scFv, V domains shown) VH: EVQLVESGGSLVKPGGSLRLSCAASGFTFSNSYMNWVRQAPGKGLEWISYISGSSRYSYADFVKGRFTISRDNATNSLYLQMNSLRAEDTAVYYCVRSSNSYFGGGMDVWGRGTLVTVSS VL: QSVLTQPASVSGSPGQSITISCAGTSSDVGGSYGVSWYQQHPGKAPKLMIYGDSYRPSGVSNRFSGSKSGNTASLTISGLQAEDEADYYCSSYTNYSTRVFGGGTKLAVL	754	24
anti-Cath-D scFv F1 (scFv, V domains shown) VH: EVQLVESGGSLVKPGGSLRLSCAASGFTSNNYMNWVRQAPGKGLEWISYISGSSRYISYADFVKGRFTISRDNATNSLYLQMNSLRAEDTAVYYCVRSSNSGGMDVWGRGTLVTVSS VL: QSVLTQPASVSGSPGQSITISCAGTSSDVGGYYGVSWYQQHPGKAPKLMIYYDSYRPSGVSNRFSGSKSGNTASLTISGLQAEDEADYYCSSYTSNSTRVFGGGTKLAVL	212	100
